Results from patent publication US20220090025A1.

Molecular target: CAR (coxsackie and adenovirus receptor) (human) (UniProt P78310)
Experiment: cell-based or functional assay

Chain of UniProt P78310 (P78310 20-365): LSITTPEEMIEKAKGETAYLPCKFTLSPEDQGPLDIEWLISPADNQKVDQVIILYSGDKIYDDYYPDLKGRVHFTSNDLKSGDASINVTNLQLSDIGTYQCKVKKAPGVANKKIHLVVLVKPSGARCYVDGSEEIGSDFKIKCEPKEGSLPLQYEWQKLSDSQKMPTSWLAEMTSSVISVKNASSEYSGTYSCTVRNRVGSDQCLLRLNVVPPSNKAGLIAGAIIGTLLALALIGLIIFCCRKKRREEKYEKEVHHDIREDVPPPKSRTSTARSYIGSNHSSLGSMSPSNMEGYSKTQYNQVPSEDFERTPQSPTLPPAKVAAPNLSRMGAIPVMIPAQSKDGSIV

“CAR-specific fiber protein (fiber protein of adenovirus) (ligand)” gave a reduction of GFP transduction of U343 cells by naked type Ad (MOI 20) after pretreatment with fiber protein at 0.2 µg/ml, flow cytometry of 67 % reduced and a reduction of GFP transduction of U343 cells by naked type Ad (MOI 20) after pretreatment with fiber protein at 2 µg/ml, flow cytometry of 90 % reduced.
